Experimental data published in US20250236850.

Tests used:
[1] = molecular target: T1, AN4702 protein of Aspergillus nidulans (uniprot entry Q5B428), native N-terminally histidine-methylated protein, Q5B428
T1 chain: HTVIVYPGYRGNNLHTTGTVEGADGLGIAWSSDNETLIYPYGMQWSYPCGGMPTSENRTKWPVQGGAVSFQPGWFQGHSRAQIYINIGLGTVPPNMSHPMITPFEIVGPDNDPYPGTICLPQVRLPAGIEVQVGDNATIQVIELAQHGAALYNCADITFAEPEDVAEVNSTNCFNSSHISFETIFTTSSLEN

[2] = molecular target: T2, AA9A LPMO from Lentinus similis (LsAA9A), secreted by K. phaffii, His6-tagged
T2 chain: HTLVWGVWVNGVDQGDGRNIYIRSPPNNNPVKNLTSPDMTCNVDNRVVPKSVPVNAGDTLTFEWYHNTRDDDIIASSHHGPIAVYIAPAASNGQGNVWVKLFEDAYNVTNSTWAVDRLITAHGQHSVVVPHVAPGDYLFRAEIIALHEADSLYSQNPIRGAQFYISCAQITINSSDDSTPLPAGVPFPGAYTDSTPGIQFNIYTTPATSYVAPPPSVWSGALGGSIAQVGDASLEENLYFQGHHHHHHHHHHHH

B1: Truncated variant of AN4663 lacking the transmembrane region (positions 1-224) (protein)
chain: LNNIIADDGFALVARQDSTTGYISVLDNLEDGFRVMRCDHSLLGGQWIKKRPNYTPPAVKDPIYAVFTMLEAVRLVETAHGIPRADAGSNALVIGLGIGTTPGALISHGIDTTIVEIDPVVHKYALQYFDLPENHTPIIEDARAFVQRSRNAPQPKQYDYIVHDVFTGGAEPVELFTYEFISGLHALLKDDGVIAINYAGDISLYSTALSIRTIKSIFPTCRLFREAAAPEIGPDFTNMVIFCTKSRGAPITFRDPVPEDFLGSRFRSRYLVPKHEVDAAQFDNVGLEDGPQGHGRRVLVDKEVGRLHKYQDRSALEHWGIMRTVLPDRVWEGW
Which “PRM quantification of methylated and unmethylated N-terminal peptide after truncation of AN4663” value [1] does the source give for B1 here?
Its value is “the expression of this variant abolished the N-terminal histidine methylation capacity of the enzyme”.

B2: AN4663 N-terminal histidine methyltransferase (NHMT) from Aspergillus nidulans (protein)
chain: MAPFRSIYEKDATKKLVVGAALLVLAAFYSYVFLLTLAPVYGSTPSHIFHGYGVGIAGVAGWFSKDIVDRVSGRKAIYAIPVLAFFLPVVQYFVSQQSSALGNPAGPIFTEVLALYPLVLLSVACAGKLVQAGLNLQRHGDLVAEHIPLLGSYVIYSAGEHLIKAFLSRFIGSTVLLSRAGLQILIAIFYAAAVPSKALLLAIPAFLFSVTSNTHLPLGHTTTALNNIIADDGFALVARQDSTTGYISVLDNLEDGFRVMRCDHSLLGGQWIKKRPNYTPPAVKDPIYAVFTMLEAVRLVETAHGIPRADAGSNALVIGLGIGTTPGALISHGIDTTIVEIDPVVHKYALQYFDLPENHTPIIEDARAFVQRSRNAPQPKQYDYIVHDVFTGGAEPVELFTYEFISGLHALLKDDGVIAINYAGDISLYSTALSIRTIKSIFPTCRLFREAAAPEIGPDFTNMVIFCTKSRGAPITFRDPVPEDFLGSRFRSRYLVPKHEVDAAQFDNVGLEDGPQGHGRRVLVDKEVGRLHKYQDRSALEHWGIMRTVLPDRVWEGW
With B2 as the protein, how does the “methylation stoichiometry of the N-terminal peptide of secreted LsAA9A (targeted MS), Amy signal peptide construct, co-expression in K. phaffii” value [2] read?
The value was “a methylation stoichiometry on average of 65% of the peptides for the Amy signal peptide”.

And the “methylation stoichiometry of the N-terminal peptide of secreted LsAA9A (targeted MS), native signal peptide construct, co-expression in K. phaffii” value [2]?
Its value is 29% for the native signal peptide.

And the “PRM assay of N-terminal histidine methylation of the AN4702 peptide in A. nidulans knockout strains” value [1]?
The value was “the knockout of the gene [SEQ ID NO.: 1] encoding AN4663 (uniprot entry Q5B467) [SEQ ID NO.: 2] abolished the N-terminal histidine methylation on the monitored peptides and conversely, the unmethylated form was observed”.

B3: AN4663 with E340A substitution (strain NID2787) (protein)
chain: MAPFRSIYEKDATKKLVVGAALLVLAAFYSYVFLLTLAPVYGSTPSHIFHGYGVGIAGVAGWFSKDIVDRVSGRKAIYAIPVLAFFLPVVQYFVSQQSSALGNPAGPIFTEVLALYPLVLLSVACAGKLVQAGLNLQRHGDLVAEHIPLLGSYVIYSAGEHLIKAFLSRFIGSTVLLSRAGLQILIAIFYAAAVPSKALLLAIPAFLFSVTSNTHLPLGHTTTALNNIIADDGFALVARQDSTTGYISVLDNLEDGFRVMRCDHSLLGGQWIKKRPNYTPPAVKDPIYAVFTMLEAVRLVETAHGIPRADAGSNALVIGLGIGTTPGALISHGIDTTIVAIDPVVHKYALQYFDLPENHTPIIEDARAFVQRSRNAPQPKQYDYIVHDVFTGGAEPVELFTYEFISGLHALLKDDGVIAINYAGDISLYSTALSIRTIKSIFPTCRLFREAAAPEIGPDFTNMVIFCTKSRGAPITFRDPVPEDFLGSRFRSRYLVPKHEVDAAQFDNVGLEDGPQGHGRRVLVDKEVGRLHKYQDRSALEHWGIMRTVLPDRVWEGW
With B3 as the protein, how does the “PRM assay of N-terminal histidine methylation in A. nidulans (strain NID2787)” value [1] read?
Its value is “Site-directed mutagenesis of this glutamate to an alanine (E340A) lead to a loss of N-terminal histidine methylation generating a similar methylation phenotype to a complete knockout of AN4663”.

B4: N-terminally mRFP-tagged AN4663 (strain NID2789) (protein)
chain: MAPFRSIYEKDATKKLVVGAALLVLAAFYSYVFLLTLAPVYGSTPSHIFHGYGVGIAGVAGWFSKDIVDRVSGRKAIYAIPVLAFFLPVVQYFVSQQSSALGNPAGPIFTEVLALYPLVLLSVACAGKLVQAGLNLQRHGDLVAEHIPLLGSYVIYSAGEHLIKAFLSRFIGSTVLLSRAGLQILIAIFYAAAVPSKALLLAIPAFLFSVTSNTHLPLGHTTTALNNIIADDGFALVARQDSTTGYISVLDNLEDGFRVMRCDHSLLGGQWIKKRPNYTPPAVKDPIYAVFTMLEAVRLVETAHGIPRADAGSNALVIGLGIGTTPGALISHGIDTTIVEIDPVVHKYALQYFDLPENHTPIIEDARAFVQRSRNAPQPKQYDYIVHDVFTGGAEPVELFTYEFISGLHALLKDDGVIAINYAGDISLYSTALSIRTIKSIFPTCRLFREAAAPEIGPDFTNMVIFCTKSRGAPITFRDPVPEDFLGSRFRSRYLVPKHEVDAAQFDNVGLEDGPQGHGRRVLVDKEVGRLHKYQDRSALEHWGIMRTVLPDRVWEGW
With B4 as the protein, how does the “PRM assay of N-terminal histidine methylation in A. nidulans (strain NID2789)” value [1] read?
The value was “methylation of LPMOs was stoichiometric for the N-terminally tagged version”.

B5: C-terminally mRFP-tagged AN4663 (strain NID2794) (protein)
chain: MAPFRSIYEKDATKKLVVGAALLVLAAFYSYVFLLTLAPVYGSTPSHIFHGYGVGIAGVAGWFSKDIVDRVSGRKAIYAIPVLAFFLPVVQYFVSQQSSALGNPAGPIFTEVLALYPLVLLSVACAGKLVQAGLNLQRHGDLVAEHIPLLGSYVIYSAGEHLIKAFLSRFIGSTVLLSRAGLQILIAIFYAAAVPSKALLLAIPAFLFSVTSNTHLPLGHTTTALNNIIADDGFALVARQDSTTGYISVLDNLEDGFRVMRCDHSLLGGQWIKKRPNYTPPAVKDPIYAVFTMLEAVRLVETAHGIPRADAGSNALVIGLGIGTTPGALISHGIDTTIVEIDPVVHKYALQYFDLPENHTPIIEDARAFVQRSRNAPQPKQYDYIVHDVFTGGAEPVELFTYEFISGLHALLKDDGVIAINYAGDISLYSTALSIRTIKSIFPTCRLFREAAAPEIGPDFTNMVIFCTKSRGAPITFRDPVPEDFLGSRFRSRYLVPKHEVDAAQFDNVGLEDGPQGHGRRVLVDKEVGRLHKYQDRSALEHWGIMRTVLPDRVWEGW
B5 was tested. Which “PRM assay of N-terminal histidine methylation in A. nidulans (strain NID2794)” value [1] did it give?
The value was “the C-terminal mRFP tagged version was unable to methylate the LPMOs”.
